Test results from PMC2199218 (The Journal of Cell Biology, 2002).
Values joined by “and” are separate entries in the source; they are usually repeats but may differ in a detail not shown here. Equal values may be shown once.

B1: NH2-terminal HA-tagged FLN-B(19–24) (domain or fragment, human, UniProt O75369-1 2009-2602, looked up)
chain: GRGLSEGRTFEMSDFIVDTRDAGYGGISLAVEGPSKVDIQTEDLEDGTCKVSYFPTVPGVYIVSTKFADEHVPGSPFTVKISGEGRVKESITRTSRAPSVATVGSICDLNLKIPEINSSDMSAHVTSPSGRVTEAEIVPMGKNSHCVRFVPQEMGVHTVSVKYRGQHVTGSPFQFTVGPLGEGGAHKVRAGGPGLERGEAGVPAEFSIWTREAGAGGLSIAVEGPSKAEITFDDHKNGSCGVSYIAQEPGNYEVSIKFNDEHIPESPYLVPVIAPSDDARRLTVMSLQESGLKVNQPASFAIRLNGAKGKIDAKVHSPSGAVEECHVSELEPDKYAVRFIPHENGVHTIDVKFNGSHVVGSPFKVRVGEPGQAGNPALVSAYGTGLEGGTTGIQSEFFINTTRAGPGTLSVTIEGPSKVKMDCQETPEGYKVMYTPMAPGNYLISVKYGGPNHIVGSPFKAKVTGQRLVSPGSANETSSILVESVTRSSTETCYSAIPKASSDASKVTSKGAGLSKAFVGQKSSFLVDCSKAGSNMLLIGVHGPTTPCEEVSMKHVGNQQYNVTYVVKERGDYVLAVKWGEEHIPGSPFHVTVP
B2: COOH-terminal GFP-tagged FLN-B(19–24) (domain or fragment, human, UniProt O75369-1 2009-2602, looked up)
chain: B1 chain

How the values were obtained:
[1] = target: integrin β1A cytoplasmic domain fused to the Gal4 DNA BD (human); experiment: two-hybrid
cross-linking = target: the molecule itself; experiment: cross-linking

Chain of integrin β1A cytoplasmic domain fused to the Gal4 DNA BD (human) (P05556 21-798): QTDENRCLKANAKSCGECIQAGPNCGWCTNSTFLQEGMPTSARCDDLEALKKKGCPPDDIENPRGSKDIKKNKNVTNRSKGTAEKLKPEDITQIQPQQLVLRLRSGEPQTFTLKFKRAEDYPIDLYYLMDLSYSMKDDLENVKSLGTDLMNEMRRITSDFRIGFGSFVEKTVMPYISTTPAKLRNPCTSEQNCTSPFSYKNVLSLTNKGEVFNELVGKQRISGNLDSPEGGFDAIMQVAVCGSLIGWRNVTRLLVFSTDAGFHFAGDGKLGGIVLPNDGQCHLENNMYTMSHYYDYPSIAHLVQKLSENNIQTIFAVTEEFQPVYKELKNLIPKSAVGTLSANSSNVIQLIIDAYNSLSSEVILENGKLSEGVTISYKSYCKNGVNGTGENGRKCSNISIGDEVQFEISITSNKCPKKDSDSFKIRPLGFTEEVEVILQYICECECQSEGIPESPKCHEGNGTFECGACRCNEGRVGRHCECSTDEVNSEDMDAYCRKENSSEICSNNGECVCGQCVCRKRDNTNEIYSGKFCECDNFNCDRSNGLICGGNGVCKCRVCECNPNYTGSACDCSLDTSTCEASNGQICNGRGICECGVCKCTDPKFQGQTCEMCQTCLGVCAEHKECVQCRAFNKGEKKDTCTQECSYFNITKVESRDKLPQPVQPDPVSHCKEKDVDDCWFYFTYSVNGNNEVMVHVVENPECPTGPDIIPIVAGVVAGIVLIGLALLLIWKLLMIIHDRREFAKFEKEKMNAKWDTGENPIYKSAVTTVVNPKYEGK

Molecule	fold binding (β-galactosidase activity) against wild-type filamin-B(19–24) [1]	stoichiometry N (cross-linking)
filamin-B_(var-1)(19–24), Gal4 AD fusion (domain or fragment)	2 fold and 3 fold	
B1		2
B2		2
